{"source": "paper PMC7005674", "data": [{"target": "T1, Rap1-Halo (Saccharomyces cerevisiae) (UniProt P11938)", "T1 sequence": "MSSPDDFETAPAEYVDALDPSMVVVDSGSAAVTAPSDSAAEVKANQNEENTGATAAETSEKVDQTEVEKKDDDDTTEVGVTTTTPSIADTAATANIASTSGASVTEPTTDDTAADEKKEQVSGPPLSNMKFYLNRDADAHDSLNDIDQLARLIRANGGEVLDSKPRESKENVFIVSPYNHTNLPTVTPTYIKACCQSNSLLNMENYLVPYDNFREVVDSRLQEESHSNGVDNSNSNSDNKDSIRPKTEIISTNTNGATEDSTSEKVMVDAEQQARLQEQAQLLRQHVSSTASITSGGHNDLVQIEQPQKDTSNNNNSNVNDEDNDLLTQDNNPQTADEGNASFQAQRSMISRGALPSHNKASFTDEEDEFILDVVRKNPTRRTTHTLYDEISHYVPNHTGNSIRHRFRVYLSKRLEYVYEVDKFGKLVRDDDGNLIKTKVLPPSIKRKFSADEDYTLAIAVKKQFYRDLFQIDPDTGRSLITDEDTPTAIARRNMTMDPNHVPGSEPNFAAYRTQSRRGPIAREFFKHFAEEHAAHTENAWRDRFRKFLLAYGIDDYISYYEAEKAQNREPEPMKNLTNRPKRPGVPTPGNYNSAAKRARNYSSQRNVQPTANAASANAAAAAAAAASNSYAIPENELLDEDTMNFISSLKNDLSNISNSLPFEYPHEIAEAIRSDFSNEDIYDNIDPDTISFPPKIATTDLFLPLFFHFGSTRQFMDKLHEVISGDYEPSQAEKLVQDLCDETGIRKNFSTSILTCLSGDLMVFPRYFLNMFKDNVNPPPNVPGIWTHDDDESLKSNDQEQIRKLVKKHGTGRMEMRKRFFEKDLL", "test": "EMSA", "conditions": "EMSA (DNA): 50 mM HEPES pH 7.5, 130 mM KCl, 10% glycerol, 0.005% Tween 20, 2 mM Trolox, 3.2% glucose, 50 ng/ul poly-d(I-C), 10 min, room temperature; smTIRF …", "units": {"Kd": "nM"}, "values": [{"sequence": "CACACTGTGCCAAGTACTTACGCGGCCGCCCTGGAGAATCCCGGTGCCGAGGCCGTACATCTGTGCACCGACAGCTCTAGCACCGCTTAAACGCACGTACGCGCTGTCCCCCGCGTTTTAACCGCCAAGGGGATTACTCCCTAGTCTCCAGGCACGTGTCAGATACTGCAGAGATCTCTAGATCCATGGAGTACTTGGTCTCAAACC (double strand) [MN S1+6]", "Kd": 62.7}, {"sequence": "CACACTGTGCCAAGTACTTACGCGGCCGCCCTGGAGAATCCCGGTGCCGAGGTACATCTGTGCACCGTAGACAGCTCTAGCACCGCTTAAACGCACGTACGCGCTGTCCCCCGCGTTTTAACCGCCAAGGGGATTACTCCCTAGTCTCCAGGCACGTGTCAGATACTGCAGAGATCTCTAGATCCATGGAGTACTTGGTCTCAAACC (double strand) [MN S1+3]", "Kd": 48.5}, {"sequence": "CACACTGTGCCAAGTACTTACGCGGCCGCCCTGGAGAATCCCGGTGCCGTACATCTGTGCACCGTCGTAGACAGCTCTAGCACCGCTTAAACGCACGTACGCGCTGTCCCCCGCGTTTTAACCGCCAAGGGGATTACTCCCTAGTCTCCAGGCACGTGTCAGATACTGCAGAGATCTCTAGATCCATGGAGTACTTGGTCTCAAACC (double strand) [MN S1]", "Kd": 76.4}]}]}
